The source of these data is US20200247894A1 (Regeneron, published 2020).

Broadly, the Kd is the free concentration of one partner at which half of the binding sites on the other are occupied at equilibrium, for simple one-to-one binding. Broadly, the koff is a measure of how fast the partners let go of each other. High values mean fast dissociation, low ones slow dissociation. As a reminder, the kon is the rate constant with which the complex forms.

Assay [1] has as its target T1, Macaca fascicularis IL2Rγ extracellular domain expressed with a C-terminal myc-myc-hexahistidine tag (Macaca fascicularis).
T1 construct: also called mfIL-2Rg-MMH; mfIL-2RG-MMH
T1 chain: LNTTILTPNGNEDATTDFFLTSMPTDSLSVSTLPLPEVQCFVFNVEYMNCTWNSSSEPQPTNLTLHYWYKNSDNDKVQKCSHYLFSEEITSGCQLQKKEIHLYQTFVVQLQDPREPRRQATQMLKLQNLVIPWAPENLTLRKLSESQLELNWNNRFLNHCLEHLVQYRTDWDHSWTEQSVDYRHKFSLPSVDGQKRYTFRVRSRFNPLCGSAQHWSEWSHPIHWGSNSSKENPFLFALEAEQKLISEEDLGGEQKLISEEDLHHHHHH
As to the kind of experiment: SPR Biacore 4000, mAb captured by anti-hFc, HBS-ET, 25C. The procedure:
(§1) Equilibrium dissociation constants (KD values) for IL-2Rγ binding to purified anti-IL2Rγ monoclonal antibodies were determined using a Biacore 4000 instrument equipped with a real-time surface plasmon resonance biosensor. All binding studies were performed in 10 mM HEPES, 150 mM NaCl, 3 mM EDTA, and 0.05% v/v Surfactant Tween-20, pH 7.4 (HBS-ET) running buffer at 25° C. and 37° C. The Biacore sensor surface was first derivatized by amine coupling with a monoclonal mouse anti-human Fc antibody (GE, # BR-1008-39) to capture anti-IL2Rγ monoclonal antibodies.
(§2) The dissociation of monoclonal antibody bound IL2Rγ reagents were monitored for 8-10 minutes in HBS-ET running buffer. Kinetic association (kₐ) and dissociation (kd) rate constants were determined by fitting the real-time sensorgrams to a 1:1 binding model using Scrubber 2.0c curve fitting software. Binding dissociation equilibrium constants (KD) and dissociative half-lives (t_{1/2}) were calculated from the kinetic rate constants as: […]

Assay [2] addresses T2, Human IL2Rγ extracellular domain expressed with a C-terminal myc-myc-hexahistidine tag (human).
T2 construct: also called hIL-2Rg-MMH; hIL-2RG-MMH
T2 chain: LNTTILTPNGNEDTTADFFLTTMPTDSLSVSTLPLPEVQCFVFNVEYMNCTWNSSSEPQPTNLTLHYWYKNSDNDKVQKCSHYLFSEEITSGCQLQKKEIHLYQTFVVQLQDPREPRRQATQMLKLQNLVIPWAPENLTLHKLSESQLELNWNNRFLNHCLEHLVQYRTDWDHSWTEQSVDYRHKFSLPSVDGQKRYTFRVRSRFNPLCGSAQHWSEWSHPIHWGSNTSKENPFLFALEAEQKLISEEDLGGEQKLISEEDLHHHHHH
Described as above. On the procedure: as §1, §2

Assay [3] concerns the target T2, Human IL2Rγ extracellular domain …. As to the kind of experiment: SPR Biacore 4000, mAb captured by anti-hFc, HBS-ET, 37C. The procedure:
as §1, §2
In general terms: In SPR one partner is held on a chip, and binding of the other changes the refractive index at the surface.

For assay [4], the target named is T1, Macaca fascicularis IL2Rγ extracellular …. The assay is described as follows: SPR Biacore 4000, mAb captured by anti-hFc, 37C, dissociation in PBS-T pH 6.0. On the procedure: (§3) The dissociation rate constant (kd) for binding of IL-2Rγ reagents to purified anti-IL2Rγ monoclonal antibodies was determined using a real-time surface plasmon resonance based Biacore 4000 biosensor platform. […] The CM5 Biacore sensor surface derivatized by amine coupling with monoclonal mouse anti-human Fc antibody (GE, Catalog # BR-1008-39) was used to capture anti-IL2Rγ monoclonal antibodies expressed with human IgG4 Fc. All the IL2Rγ reagents were expressed with a C-terminal myc-myc-hexahistidine tag (subsequently referred to with a -MMH suffix). […] The dissociation of bound IL-2Rg-MMH was performed in PBS-T-pH7.4 or PBS-T-pH6.0 running buffers for 6 minutes.
(§4) Dissociation rate constants (kd) in two running buffers were determined by fitting the real-time binding sensorgrams to a 1:1 binding model using Scrubber 2.0c curve-fitting software. Values of dissociation rate for […] mAb binding to hIL-2RG-MMH and mfIL-2RG-MMH at 25° C. and 37° C. in PBS-T-pH7.4 and PBS-T-pH6.0 is shown in Table 2-1 through Table 2-8.

For assay [5] the target is unchanged. As to the kind of experiment: SPR Biacore 4000, mAb captured by anti-hFc, 37C, dissociation in PBS-T pH 7.4. On the procedure: as §3, §4

B1: H4H12899P (antibody, human IgG4 S228P, kappa, V domains shown)
VH: QVQLVESGGDLVKPGGSLRLSCATSGFTFSDFYMTWIRQAPGKGLEWISYISNSGSIVKYADSVKGRFTISRDNAKNSLYLQMNSLRAEDTAIYYCARFYGDRWGQGTLVTVSS
VL: DIQLTQSPSFLSASVGDRVTITCWASQGISTFLAWYQQKPGKAPKLLIYAASTLQSGVPSRFSGSGSGTDFTLTISSLQPEDFATYHCQQLNNYPWTFGQGTKVEIKR
notes: anti-IL2Rγ monoclonal antibody expressed with human IgG4 Fc
In the case of B1, in assay [1], the “100 nM Ag Bound” value was found to be 54 RU, the Kd is 4.01 nM, the koff is 0.000407 s⁻¹ and the kon came to 102000 M⁻¹ s⁻¹. Further, in assay [1], the t1/2 was found to be 28 min. In addition, in assay [2], the “100 nM Ag Bound” value amounted to 61 RU, the Kd is 2.51 nM, the koff amounted to 0.000458 s⁻¹ and the kon was 182000 M⁻¹ s⁻¹. The molecule further had a t1/2 in assay [2] of 25 min. In assay [3], the “100 nM Ag Bound” value was 36 RU, the Kd came to 7.27 nM, the koff was determined as 0.00249 s⁻¹ and the kon turned out to be 342000 M⁻¹ s⁻¹. This molecule also gave a t1/2 in assay [3] of 5 min. Besides, in assay [4], the “100 nM Ag Bound (RU)” value is 122 RU, the koff amounted to 0.00211 s⁻¹ and the t1/2 worked out at 5 min. In assay [5], the “100 nM Ag Bound (RU)” value stood at 160 RU, the koff was found to be 0.000552 s⁻¹ and the t1/2 was 21 min.

B2: H4H12889P (antibody, human IgG4 S228P, kappa, V domains shown)
VH: EVQLVESGGGLVQPGGSLRLSCAASGFIFSSYEMHWVRQAPGKGLEWISYISSSGTTIYYADSVKGRFTISRDNAKNSLYLHMNSLRAEDTAVYYCTRARITGTFDVFDIWGQGTMVTVSS
VL: DIQMTQSPSSLSASVGDRVTITCRASQSISSYLNWYQQKPGKAPKLLIFAASNLQSGVPSRFSGSRSGTDFTLTISSLQPEDFATYYCQQNYNIPYTFGQGTKLEIKR
notes: anti-IL2Rγ monoclonal antibody expressed with human IgG4 Fc; also called REGN7257
Regarding B2, in assay [1], the “100 nM Ag Bound” value came out at 59 RU, binding was put at a Kd of 1.74 nM, the off-rate constant (koff) is 0.000404 s⁻¹ and the kon amounted to 233000 M⁻¹ s⁻¹. In assay [1], this molecule yielded a t1/2 of 29 min. For the same molecule, in assay [2], the “100 nM Ag Bound” value was found to be 64 RU, the Kd worked out at 1.41 nM, the koff stood at 0.00042 s⁻¹ and the kon came out at 298000 M⁻¹ s⁻¹. Besides, the t1/2 in assay [2] stood at 28 min. For the same molecule, in assay [3], the “100 nM Ag Bound” value was determined as 32 RU, binding was put at a Kd of 3.99 nM, the koff came to 0.00185 s⁻¹ and the kon worked out at 465000 M⁻¹ s⁻¹. In assay [3], this molecule had a t1/2 of 6 min. Further, in assay [4], the “100 nM Ag Bound (RU)” value amounted to 148 RU, the koff came out at 0.00183 s⁻¹ and the t1/2 is 6 min. Besides, in assay [5], the “100 nM Ag Bound (RU)” value worked out at 147 RU, the koff amounted to 0.000578 s⁻¹ and the t1/2 stood at 20 min.

B3: H4H12884P (antibody, human IgG4 S228P, kappa, V domains shown)
VH: QVQLQESGPGLVKPSQTLSLTCTVSGGSISSGGYYWSWIRQHPGKGLEWIGFIYYSGKTYYNPSLKSRLTISVDTSKSQFSLKLRSVTAADTAVYYCARLGYTNSAGWFDPWGQGTLVTVSS
VL: DIQMTQSPSSLSASVGDRVTITCRASQSISSYLNWYQQKPGKAPNLLIYAASSLQSGVPSRFSGSGSGTDFTLTISSLQPEDLATYYCQQSYTTPFTFGPGTKVDIKR
notes: as for B1
For the molecule B3, in assay [1], the “100 nM Ag Bound” value worked out at 82 RU, the Kd is 6.98 nM, the koff is 0.00121 s⁻¹ and the kon was determined as 174000 M⁻¹ s⁻¹. In assay [1], this molecule returned a t1/2 of 10 min. Further, in assay [2], the “100 nM Ag Bound” value was found to be 84 RU, the dissociation constant (Kd) came out at 6.96 nM, the koff came to 0.00139 s⁻¹ and the kon came to 199000 M⁻¹ s⁻¹. The molecule also showed a t1/2 in assay [2] of 8 min. In addition, in assay [3], the “100 nM Ag Bound” value is 62 RU, binding was characterised by a dissociation constant (Kd) of 13.1 nM, the koff was determined as 0.00336 s⁻¹ and the kon turned out to be 257000 M⁻¹ s⁻¹. This molecule also displayed a t1/2 in assay [3] of 3.4 min. In assay [4], the “100 nM Ag Bound (RU)” value worked out at 135 RU, the koff was 0.00335 s⁻¹ and the t1/2 came to 3.4 min. Moreover, in assay [5], the “100 nM Ag Bound (RU)” value was determined as 171 RU, the koff turned out to be 0.00147 s⁻¹ and the t1/2 is 8 min.

B4: H4H12890P (antibody, human IgG4 S228P, kappa, V domains shown)
VH: EVQLVESGGGLVQPGGSLRLSCAASGFTFNNYAMHWVRQAPGKGLEYVSSISSSGGSTYYEDSVKGRFTISRDNSKNTLYLQMGSLRAEDMAVYYCARSFYGSGTYYDTFDMWGQGTMVTVSS
VL: DIQMTQSPSSLSASIGDRVTITCRASQSISRYLNWYQQKPGKAPKLLIYAASSLQSGVPSRFSASGSGTDFTLTISSLQPEDFATYYCQQSYSTPFTFGQGTKLEIKR
notes: as for B1
Take B4: in assay [1], the “100 nM Ag Bound” value turned out to be 37 RU, the Kd worked out at 5.16 nM, the koff is 0.000313 s⁻¹ and the kon is 60600 M⁻¹ s⁻¹. For the same molecule, the t1/2 in assay [1] was determined as 37 min. In assay [2], the “100 nM Ag Bound” value is 48 RU, binding was put at a Kd of 4.91 nM, the koff was 0.000333 s⁻¹ and the kon is 67900 M⁻¹ s⁻¹. Moreover, in assay [2], the t1/2 came out at 35 min. Moreover, in assay [3], the “100 nM Ag Bound” value came out at 27 RU, the Kd was 14 nM, the koff was determined as 0.00133 s⁻¹ and the kon was 95100 M⁻¹ s⁻¹. The same molecule returned a t1/2 in assay [3] of 9 min. Also, in assay [4], the “100 nM Ag Bound (RU)” value worked out at 71 RU, the koff turned out to be 0.00276 s⁻¹ and the t1/2 turned out to be 4 min. In assay [5], the “100 nM Ag Bound (RU)” value was found to be 82 RU, the koff worked out at 0.000624 s⁻¹ and the t1/2 stood at 19 min.

B5: H4H12886P (antibody, human IgG4 S228P, kappa, V domains shown)
VH: EVQLVESGGGLVKPGGSLRLSCAASGFTFSTAWMSWVRQSPGRGLEWVGRMKSKTDGGTTFYAAPVKGRFTISRDDSKNTLYLQMNSLKTEDTAVYYCTTGLVPAFYKYYGVDVWGQGTTVTVSS
VL: DIQMTQSPSSLSASVGDRITITCQASQDITNYLNWYQQKPGKAPNLLIYDASNLVTGVPSRFSGSGSGTDFTFTILSLQPEDIATYYCQQYDSLLTFGPGTKVDIKR
notes: as for B1
As to B5, in assay [1], the “100 nM Ag Bound” value came to 57 RU, the Kd came to 2.45 nM, the koff was found to be 0.000266 s⁻¹ and the kon came out at 109000 M⁻¹ s⁻¹. Further, the t1/2 in assay [1] amounted to 43 min. Further, in assay [2], the “100 nM Ag Bound” value worked out at 60 RU; the affinity, expressed as Kd, was 2.02 nM; the koff was determined as 0.00027 s⁻¹; the kon was determined as 134000 M⁻¹ s⁻¹. The molecule further gave a t1/2 in assay [2] of 43 min. In assay [3], the “100 nM Ag Bound” value is 52 RU; the affinity, expressed as Kd, was 15.4 nM; the koff was determined as 0.000956 s⁻¹; the kon amounted to 61900 M⁻¹ s⁻¹. In assay [3], this molecule had a t1/2 of 12 min. In assay [4], the “100 nM Ag Bound (RU)” value was determined as 109 RU, the dissociation rate constant (koff) came to 0.00197 s⁻¹ and the t1/2 was determined as 6 min. Also, in assay [5], the “100 nM Ag Bound (RU)” value was 145 RU, the koff turned out to be 0.000471 s⁻¹ and the t1/2 turned out to be 25 min.
